Source: patent US12275759B2, “Hepatitis B virus replication inhibitor and pharmaceutical composition for treating hepatitis B comprising the same” (RIKEN, priority 2018, dated 2025)

What was measured:
Assay type in all cases: cell-based, hepatitis B virus
HBV replication [1] = experiment: system for evaluating HBV replication activity (reporter (−) DNA quantitative PCR) in HeLa cells, with wild type HBc; details: for inhibitory effect on HBV replication: pCI-HBc:pCI-ΔHBc = 9:26, 24 hours culture, amount of reporter (−) DNA vs positive control (empty vector), FIG. 7, 9, 11A; for inhibitory activity on HBV replication compared to wild type pCI-ΔHBc(α1-4b): single ratio as in Example 1, FIG. 11A
Description: The effect of each of the aforementioned ΔHBc expression vector (pCI-ΔHBc) on HBV replication was examined using the system for evaluating HBV replication activity described in WO2018/030534 developed by the present inventors.
Specifically, the system for evaluating HBV replication activity consisting of the vector for evaluating HBV replication activity (pBB-intron) encoding the reporter pgRNA shown in FIG. 5A, the HBV-P expression vector (pCI—HBV-Pol) shown in FIG. 5B, the HBc expression vector (pCI-HBc) shown in FIG. 5C, and the HBx expression vector (pCI-HBx) shown in FIG. 5D was introduced into HeLa cells together with each pCI-ΔHBc. The introduction ratio of the respective expression vectors was pBB-intron: pCI-HBc: pCI—HBV-Pol: pCI-HBx: pCI-ΔHBc=13:9:3:1:26. According to this ratio, the amount of ΔHBc is about three times (2.89 times) as much as that of the wild type HBc functioning in HBV replication. As a positive control, an empty vector (pCI) was introduced at the same ratio as pCI-ΔHBc. For gene introduction into HeLa cells, the electroporation method was used. Using an Electroporator Nepa21 (Nepa Gene Co., Ltd.) 10 μg of DNA was introduced into approximately 1×10^6 cells under the condition of 125 V/2.5 ms pulse length. The HeLa cells after gene introduction were cultured in DMEM to which 2 mL of 10% FBS was added in the presence of 5% CO2 at 37° C. for 24 hours.
When the vector for evaluating HBV replication activity (pBB-intron) described above is introduced into HeLa cells, pre-mRNA shown in FIG. 6A is synthesized by RNA-pol II in HeLa cells, then an intron comprised in the reporter sequence of pBB-intron is immediately removed by pre-mRNA splicing in HeLa cells. […] The amount of this reporter (−) DNA reflects the replication activity and replication amount of HBV. Therefore, when DNA is extracted from the cells in which the system for evaluating HBV replication activity and pCI-ΔHBc are introduced, the amount thereof is quantified with a primer set specific to the reporter (−) DNA, and then compared with the amount of the positive control, the effect of pCI-ΔHBc on the HBV replication can be evaluated.
DNA was extracted from HeLa cells after culture using DNeasy Mini (Qiagen N.V.). Then, quantitative PCR was performed using a primer set specific to the reporter (−) DNA after reverse transcription. For primers, a forward primer (Primer F) consisting of the base sequence shown in SEQ ID NO: 23, and a reverse primer (Primer R) consisting of the base sequence shown in SEQ ID NO: 24 were used. […] Therefore, it functions as a primer only when there is a reporter (−) DNA having the reporter sequence from which the intron has been removed, and the DNA fragment of 131 bases is amplified.
The basic procedures were in accordance with Example 1. As pCI-ΔHBc to be introduced into HeLa cells together with the system for evaluating HBV replication activity, only pCI-ΔHBc(α1-4b) was used. The introduction ratio of the respective expression vectors was set such that the ratio of pCI-HBc: pCI—HBV-Pol: pCI-HBx was 9:3:1, and the ratio of pBB-intron: pCI-HBc/pCI—HBV-Pol/pCI-HBx was 1:1. Then, only the system for evaluating HBV replication activity in which the ratio of pCI-ΔHBc(α1-4b): pBB-intron/pCI-HBc/pCI—HBV-Pol/pCI-HBx was adjusted to 1:26, 3:26, 9:26, or 26:26, was introduced as a positive control. In each sample, an empty vector (pCI) was used for adjustment so that the amount of the vector to be introduced is the same.

HBV replication [2] = experiment: as above; details: GLS4 0.08 to 5 μM, HBc-WT in the system; FIG. 13
[3] = test system: HBV replication by HBc-T33N; experiment: system for evaluating HBV replication activity in HeLa cells with HBc-T33N in place of HBc-WT; details: GLS4 0.08 to 5 μM, FIG. 13
Protocol: The T residue at position 33 was substituted with an N residue (denoted as T33N) by a site-directed mutagenesis method using PrimeSTAR Mutagenesis Basal Kit (Takara Bio Inc.) using the full length HBc expression vector (pCI-HBc) of genotype C used in Example 1 as the template. The T33N mutant of the full length HBc having introduced the point mutation is denoted as HBc-T33N.
The measurement of the HBV replication activity by HBc-WT or HBc-T33N was performed in accordance with the method described in Example 1 using HBc-WT or HBc-T33N as HBc comprised in the system for evaluating HBV replication described in Example 1 in the presence of GLS4 at a concentration of 0 μM, 0.08 μM, 0.16 μM, 0.31 μM, 0.63 μM, 1.25 μM, 2.5 μM, or 5 μM. Based on the obtained measurement value of HBV replication activity (amount of reverse transcribed HBV DNA), the efficiency for inhibition of HBV replication (%) was calculated.
The evaluation of the inhibitory effect on HBV replication of the spike region ΔHBc(α1-4b) was in accordance with the method described in Example 2. However, in this Example, HBc-WT or HBc-T33N was used as the HBc comprised in the system for evaluating HBV replication described in Example 2.

full length HBc = experiment: Western blotting under non-reducing conditions of HBc dimer and multimer formation in HeLa cells; details: PA-tagged ΔHBc coexpressed with full length HBc in HeLa cells, antibody #511; FIG. 12A
Protocol: Each of the expression vectors of the wild type full length HBc (HBc-WT), and mutant full length HBc (HBc-F23A and HBc-L42A) was introduced into HeLa cells, which were cultured for 24 hours. Then proteins were extracted with a WB lysis buffer (1% Triton, 25 mM Tris pH 7.4, 150 mM NaCl). After addition of CuSO4 (100 μM), the protein extract was incubated at room temperature for 20 min, and neutralized with 1 mM EDTA, to which α13-ME-free SDS-PAGE sample buffer was added. Then SDS-PAGE was performed using a 10 to 20% polyacrylamide gel (SuperSep™ Ace, FUJIFILM Wako Pure Chemical Corporation). After the electrophoresis, the proteins were transferred to a PVDF membrane using a semi-dry blotter, and Western blotting was performed using a mouse anti-human HBc monoclonal antibody (#511).
The basic procedures were in accordance with the method described in Example 4. pCI-ΔHBc(α1-4b)-PA alone, or pCI-ΔHBc(α1-4b)-PA and pCI-ΔHBc(α1-4b)-F23A-PA at a ratio of 1:1 were introduced into HeLa cells.

Row | Molecule | inhibitory effect on HBV replication (HBV replication [1]; HeLa cells) | further results
1 | α1-2b (MDIDPYKEFGASVELLSFLPSDFFPSIRDLLDTASALYREALESPEHCS) | inhibitory activity on HBV replication was lost | –
2 | α4ab (MSNLEDPASRELVVSYVNVNMGLKIRQLLWFHISCLTFG) | inhibitory activity on HBV replication was lost | –
3 | CCOC(=O)C1=C(CN2CCOCC2)NC(c2nccs2)=NC1c1ccc(F)cc1Br (stereo not drawn) [GLS4] | – | inhibitory effect on HBV replication by HBc-WT (efficiency of inhibition) (HBV replication [2]): inhibited HBV replication by HBc-WT in a concentration-dependent manner; inhibitory effect on HBV replication by HBc-T33N (efficiency of inhibition) [3]: did not exhibit inhibitory effect on HBV replication by HBc-T33N
4 | α3-4b (protein) MSPEHCSPHHTALRQAILCWGELMNLATWVGSNLEDPASRELVVSYVNVNMGLKIRQLLWFHISCLTFG | inhibitory activity on HBV replication was lost | –
5 | α1-4a (protein) MDIDPYKEFGASVELLSFLPSDFFPSIRDLLDTASALYREALESPEHCSPHHTALRQAILCWGELMNLATWVGSNLEDPASRELVVSYVNV | inhibitory activity on HBV replication was lost | –
6 | α2-4b (protein) MFLPSDFFPSIRDLLDTASALYREALESPEHCSPHHTALRQAILCWGELMNLATWVGSNLEDPASRELVVSYVNVNMGLKIRQLLWFHISCLTFG | inhibitory activity on HBV replication was lost | –
7 | HR-RDBD (protein) MGRETVLEYLVSFGVWIRTPPAYRPPNAPILSTLPETTVVRRRGRSPRRRTPSPRRRRSQSPRRRRSQSRESQC | did not show the inhibitory activity on HBV replication | –
8 | ΔHBc(α1-4b)-F23A (protein) MDIDPYKEFGASVELLSFLPSDAFPSIRDLLDTASALYREALESPEHCSPHHTALRQAILCWGELMNLATWVGSNLEDPASRELVVSYVNVNMGLKIRQLLWFHISCLTFG | inhibitory effect on HBV replication activity was maintained | dose-dependent inhibition of HBV replication (HBV replication [1]; HeLa cells, HBc-WT, ΔHBc/WT-HBc expression vector ratio 1/9, 3/9, 9/9, 26/9, FIG. 8, 11B, 14 left): inhibited HBV replication depending on its expression level; inhibitory activity on HBV replication compared to wild type pCI-ΔHBc(α1-4b) (HBV replication [1]; HeLa cells): more strongly inhibited than in the cells having introduced the wild type pCI-ΔHBc(α1-4b); inhibitory activity on HBV replication compared to ΔHBc(α1-4b), dose series (HBV replication [1]; plasmids serially diluted with empty vector as in Example 2, FIG. 11B): stronger inhibitory activity on HBV replication than ΔHBc(α1-4b); effect on multimer formation of the full length HBc (full length HBc): inhibited the normal multimer formation of the full length HBc
9 | ΔHBc(α1-4b)-L42A (protein) MDIDPYKEFGASVELLSFLPSDFFPSIRDLLDTASALYREAAESPEHCSPHHTALRQAILCWGELMNLATWVGSNLEDPASRELVVSYVNVNMGLKIRQLLWFHISCLTFG | inhibitory effect on HBV replication activity was maintained | inhibitory activity on HBV replication compared to wild type pCI-ΔHBc(α1-4b) (HBV replication [1]; HeLa cells): reduced compared to the wild type pCI-ΔHBc(α1-4b)
